Source: patent US20210395718A1, “NOVEL KETOSE 3-EPIMERASE” (NATIONAL UNIVERSITY CORPORATION KAGAWA UNIVERSITY, priority 2018, published 2021)

Key:
[1] = Ketose 3-epimerase activity ratio (T70/T50) at reaction temperature of 70° C. to 50° C.; type: biochemical; conditions: crude recombinant enzyme; ratio of activity at 70° C. to activity at 50° C., 10 min reaction
Experimental: An enzyme having higher heat resistance than an amino acid substitution-free wild type enzyme can be obtained by introducing mutation into the gene of the ketose 3-epimerase of the present invention and substituting the corresponding amino acid residue with another amino acid residue by a site-directed mutagenesis operation to prepare various amino acid-substituted mutants. The heat resistance is evaluated by two indices, that is, a ketose 3-epimerase activity ratio (T70/T50) at the reaction temperatures of 70° C. to 50° C. and a residual activity after incubation at 60° C. for one hour.
Heat resistance of the present enzyme (crude recombinant enzyme) and the crude enzyme of the control enzyme was investigated by measuring an activity at 70° C. and an activity at 50° C. under the reaction conditions (10 minutes) used for determining the optimum temperature in the above 2 shown in Table 2 and finding their ratio (T70/T50).

[2] = Thermal stability: residual activity after incubation at 60° C. for one hour; type: biochemical; conditions: crude recombinant enzyme; after incubation at 60° C. for 1 hour
Experimental: Thermal stability of the enzyme was investigated by measuring the activity of the enzyme after incubation at 60° C. for one hour and finding its relative activity supposing that the activity at 60° C. under the reaction conditions (10 minutes) used for determining the optimum temperature in the above 2 shown in Table 2 was 100. As heat treatment conditions, the crude enzyme solution, a buffer (50 mM tris-HCl, pH 7.5), and 2 mM MgCl2 were used to give a total amount of 200 p1 and after retaining at 60° C. for one hour, the reaction mixture was cooled for 10 minutes in ice water. The residual enzyme activity was then measured by the conventional method.
The activity of each of the present enzyme (crude recombinant enzyme) and the crude enzyme of the control enzyme after incubation at 60° C. for 1 hour was measured and a relative activity of it was determined supposing that the activity at 60° C. under the reaction conditions (10 minutes) for determining the optimum temperature in the above 2 shown in Table 2 is 100. The relative activity was used as a heat resistance index of the enzyme. As heat treatment conditions, the crude enzyme solution, a buffer (50 mM tris-HCl, pH 7.5), and 2 mM MgCl2 were used to give a total amount of 200 p1 and after retaining at 60° C. for one hour, the reaction mixture was cooled for 10 minutes in ice water. The residual enzyme activity was measured by the conventional method.

| Molecule | T70/T50 [1] | Residual activity (%) [2] [%] |
| --- | --- | --- |
| Ketose 3-epimerase mutant 7: amino acid-substituted mutant of SEQ ID NO: 1 (protein, Arthrobacter histidinolovorans) MKIGCHGLVWTGRFDAEGIRYSVQKTKEAGFDLIEFPLMDPFSFDVATAKSALAEHGLSVSASLGLSEATDVSSEDPAIVKAGEELLNRALDVLAELGATDFCGVIYSAMKKYMEPATEQGLSNSKAAVGRVVDRAAGLGINVSLEVVNRYETNVLNTGRQALSYLSDVKRPNLGVHLDTYHMNIEESDMFSPVLDTAEVLKYVHIGESHRGYLGTGSVDFDNFFKALGRIGYDGPVVFESFSSAVVAPDLSRMLGIWRNLWADNEELGAHANAFIRDKLTAIKTIELH | 2.03 | 83.1 |
| Ketose 3-epimerase mutant 10: amino acid-substituted mutant of SEQ ID NO: 1 (protein, Arthrobacter histidinolovorans) MKIGCHGLVWTGRFDAEGIRYSVQKTKEAGFDLIEFPLMDPFSFDVATAKSALAEHGLSVSASLGLSEATDVSSEDPAIVKAGEELLNRALDVLAELGATDFCGVIYSAMKKYMEPATEQGLSNSKAAVGRVVDRAAGLGINVSLEVVNRYETNVLNTGRQALSYLSDVKRPNLGVHLDTYHMNIEESDMFSPVLDTAEALKYVHIGESHRGYLGTGNVDFDNFFKALGRIGYDGPVVFESFSSAVVAPDLSRMLGIWRNLWADNEELGAHANAFIRDKLTAIKTIELH | 1.98 | 79.5 |
| Ketose 3-epimerase mutant 14: amino acid-substituted mutant of SEQ ID NO: 1 (protein, Arthrobacter histidinolovorans) MKIGCHGLVWTGRFDAEGIRYSVQKTKEAGFDLIEFPLMDPFSFDVATAKSALAEHGLTASASLGLSEATDVSSEDPAIVKAGEELLNRALDVLAELGATDFCGVIYSAMKKYMEPATEQGLSNSKAAVGRVVDRAAGLGINVSLEVVNRYETNVLNTGRQALSYLSDVKRPNLGVHLDTYHMNIEESDMFSPVLDTAEVLKYVHIGESHRGYLGTGSVDFDNFFKALGRIGYDGPVVFESFSSAVVAPDLSRMLGIWRNLWADNEELGAHANAFIRDKLTAIKTIELH | 1.91 | 79.1 |
| Ketose 3-epimerase mutant 8: amino acid-substituted mutant of SEQ ID NO: 1 (protein, Arthrobacter histidinolovorans) MKIGCHGLVWTGRFDAEGIRYSVQKTKEAGFDLIEFPLMDPFSFDVATAKSALAEHGLTASASLGLSEATDVSSEDPAIVKAGEELLNRALDVLAELGATDFCGVIYSAMKKYMEPATEQGLSNSKAAIGRVVDRAAGLGINVSLEVVNRYETNVLNTGRQALSYLSDVKRPNLGVHLDTYHMNIEESDMFSPVLDTAEVLKYVHIGESHRGYLGTGNVDFDNFFKALGRIGYDGPVVFESFSSAVVAPDLSRMLGIWRNLWADNEELGAHANAFIRDKLTAIKTIELH | 2.03 | 115.3 |
| Ketose 3-epimerase mutant 17: amino acid-substituted mutant of SEQ ID NO: 1 (protein, Arthrobacter histidinolovorans) MKIGCHGLVWTGRFDAEGIRYSVQKTKEAGFDLIEFPLMDPFSFDVATAKSALAEHGLTASASLGLSEATDVSSEDPAIVKAGEELLNRALDVLAELGATEFCGVIYSAMKKYMEPATEQGLSNSKAAVGRVVDRAAGLGINVSLEVVNRYETNVLNTGRQALSYLSDVKRPNLGVHLDTYHMNIEESDMFSPVLDTAEVLKYVHIGESHRGYLGTGSVDFDNFFKALGRIGYDGPVVFESFSSAVVAPDLSRMLGIWRNLWADNEELGAHANAFIRDKLTAIKTIELH | 1.89 | 62.3 |
| Ketose 3-epimerase mutant 9: amino acid-substituted mutant of SEQ ID NO: 1 (protein, Arthrobacter histidinolovorans) MKIGCHGLVWTGRFDAEGIRYSVQKTKEAGFDLIEFPLMDPFSFDVATAKSALAEHGLSVSASLGLSEATDVSSEDPAIVKAGEELLNRALDVLAELGATDFCGVIYSAMKKYMEPATEQGLSNSKAAVGRVVDRAAGLGINVSLEVVNRYETNVLNTGRQALSYLSDVKRPNLGVHLDTYHMNIEESDMFSPVLDTAEALKYVHIGESHRGYLGTGSVDFDNFFKALGRIGYDGPVVFESFSSAVVAPDLSRMLGIWRNLWADNEELGAHANAFIRDKLTAIKTIELH | 2.01 | 65.6 |
| Ketose 3-epimerase mutant 15: amino acid-substituted mutant of SEQ ID NO: 1 (protein, Arthrobacter histidinolovorans) MKIGCHGLVWTGRFDAEGIRYSVQKTKEAGFDLIEFPLMDPFSFDVATAKSALAEHGLSVSASLGLSEATDVSSEDPAIVKAGEELLNRALDVLAELGATEFCGVIYSAMKKYMEPATEQGLSNSKAAVGRVVDRAAGLGINVSLEVVNRYETNVLNTGRQALSYLSDVKRPNLGVHLDTYHMNIEESDMFSPVLDTAEVLKYVHIGESHRGYLGTGSVDFDNFFKALGRIGYDGPVVFESFSSAVVAPDLSRMLGIWRNLWADNEELGAHANAFIRDKLTAIKTIELH | 1.90 | 89.3 |
| Ketose 3-epimerase mutant 13: amino acid-substituted mutant of SEQ ID NO: 1 (protein, Arthrobacter histidinolovorans) MKIGCHGLVWTGRFDAEGIRYSVQKTKEAGFDLIEFPLMDPFSFDVATAKSALAEHGLTASASLGLSEATDVSSEDPAIVKAGEELLNRALDVLAELGATDFCGVIYSAMKKYMEPATEQGLSNSKAAIGRVVDRAAGLGINVSLEVVNRYETNVLNTGRQALSYLSDVKRPNLGVHLDTYHMNIEESDMFSPVLDTAEVLKYVHIGESHRGYLGTGSVDFDNFFKALGRIGYDGPVVFESFSSAVVAPDLSRMLGIWRNLWADNEELGAHANAFIRDKLTAIKTIELH | 1.94 | 83.7 |
| Ketose 3-epimerase mutant 16: amino acid-substituted mutant of SEQ ID NO: 1 (protein, Arthrobacter histidinolovorans) MKIGCHGLVWTGRFDAEGIRYSVQKTKEAGFDLIEFPLMDPFSFDVATAKSALAEHGLSVSASLGLSEATDVSSEDPAIVKAGEELLNRALDVLAELGATEFCGVIYSAMKKYMEPATEQGLSNSKAAIGRVVDRAAGLGINVSLEVVNRYETNVLNTGRQALSYLSDVKRPNLGVHLDTYHMNIEESDMFSPVLDTAEALKYVHIGESHRGYLGTGSVDFDNFFKALGRIGYDGPVVFESFSSAVVAPDLSRMLGIWRNLWADNEELGAHANAFIRDKLTAIKTIELH | 1.89 | 54.0 |
| Ketose 3-epimerase mutant 12: amino acid-substituted mutant of SEQ ID NO: 1 (protein, Arthrobacter histidinolovorans) MKIGCHGLVWTGRFDAEGIRYSVQKTKEAGFDLIEFPLMDPFSFDVATAKSALAEHGLTASASLGLSEATDVSSEDPAIVKAGEELLNRALDVLAELGATDFCGVIYSAMKKYMEPATEQGLSNSKAAIGRVVDRAAGLGINVSLEVVNRYETNVLNTGRQALSYLSDVKRPNLGVHLDTYHMNIEESDMFSPVLDTAEALKYVHIGESHRGYLGTGNVDFDNFFKALGRIGYDGPVVFESFSSAVVAPDLSRMLGIWRNLWADNEELGAHANAFIRDKLTAIKTIELH | 1.94 | 90.5 |
| Ketose 3-epimerase mutant 11: amino acid-substituted mutant of SEQ ID NO: 1 (protein, Arthrobacter histidinolovorans) MKIGCHGLVWTGRFDAEGIRYSVQKTKEAGFDLIEFPLMDPFSFDVATAKSALAEHGLTASASLGLSEATDVSSEDPAIVKAGEELLNRALDVLAELGATDFCGVIYSAMKKYMEPATEQGLSNSKAAIGRVVDRAAGLGINVSLEVVNRYETNVLNTGRQALSYLSDVKRPNLGVHLDTYHMNIEESDMFSPVLDTAEALKYVHIGESHRGYLGTGSVDFDNFFKALGRIGYDGPVVFESFSSAVVAPDLSRMLGIWRNLWADNEELGAHANAFIRDKLTAIKTIELH | 1.95 | 68.6 |
